Data on 1 molecule can be found in patent publication US20120178682A1 (published 2012).

Bridge positions count the residues as written; N and C are the ends. Ends that are not written are not given here.

The target in assay [1] is VEGF (form and enantiomer not stated at paragraph 530). Briefly: standard SPR, preliminary estimate, reference RFX001.
Assay [2] shares this target. As to the kind of experiment: Octet-SPR, preliminary estimate, reference RFX001.

VEGF (form and enantiomer not stated at paragraph 530), sequence (P15692 whole entry): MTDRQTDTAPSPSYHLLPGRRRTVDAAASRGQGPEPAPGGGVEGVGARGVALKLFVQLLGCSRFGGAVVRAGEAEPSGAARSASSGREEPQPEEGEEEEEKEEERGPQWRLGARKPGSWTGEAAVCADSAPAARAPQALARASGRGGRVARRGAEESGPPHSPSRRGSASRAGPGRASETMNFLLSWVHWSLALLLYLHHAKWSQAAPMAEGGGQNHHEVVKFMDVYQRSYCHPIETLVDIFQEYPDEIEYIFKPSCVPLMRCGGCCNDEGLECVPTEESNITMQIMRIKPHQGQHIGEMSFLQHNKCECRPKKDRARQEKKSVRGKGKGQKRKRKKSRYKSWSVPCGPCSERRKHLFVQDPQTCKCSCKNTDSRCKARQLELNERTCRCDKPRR

B1: RFX002 (enantiomer and preparation not stated at paragraph 530) (designed binder)
chain: TYKMILNGKTLKSECTTEAVDLFDAFDVLFVCAASNFSFIDDWTYDDATKTFTVTE
modifications: disulfide 15-32 (inferred); also: enantiomer (L- or D-form) not given here
Take B1: the figures for the “fold increase of binding affinity against RFX001” value in assay [1] and in assay [2] were roughly 2 fold and roughly 5 fold, respectively.
